Experimental findings from US20100316648A1 (published 2010) are described below.

The chains are these.
B1: Plasminogen (ligand, UniProt P00747 20-810, looked up)
chain: EPLDDYVNTQGASLFSVTKKQLGAGSIEECAAKCEEDEEFTCRAFQYHSKEQQCVIMAENRKSSIIIRMRDVVLFEKKVYLSECKTGNGKNYRGTMSKTKNGITCQKWSSTSPHRPRFSPATHPSEGLEENYCRNPDNDPQGPWCYTTDPEKRYDYCDILECEEECMHCSGENYDGKISKTMSGLECQAWDSQSPHAHGYIPSKFPNKNLKKNYCRNPDRELRPWCFTTDPNKRWELCDIPRCTTPPPSSGPTYQCLKGTGENYRGNVAVTVSGHTCQHWSAQTPHTHNRTPENFPCKNLDENYCRNPDGKRAPWCHTTNSQVRWEYCKIPSCDSSPVSTEQLAPTAPPELTPVVQDCYHGDGQSYRGTSSTTTTGKKCQSWSSMTPHRHQKTPENYPNAGLTMNYCRNPDADKGPWCFTTDPSVRWEYCNLKKCSGTEASVVAPPPVVLLPDVETPSEEDCMFGNGKGYRGKRATTVTGTPCQDWAAQEPHRHSIFTPETNPRAGLEKNYCRNPDGDVGGPWCYTTNPRKLYDYCDVPQCAAPSFDCGKPQVEPKKCPGRVVGGCVAHPHSWPWQVSLRTRFGMHFCGGTLISPEWVLTAAHCLEKSPRPSSYKVILGAHQEVNLEPHVQEIEVSRLFLEPTRKDIALLKLSSPAVITDKVIPACLPSPNYVVADRTECFITGWGETQGTFGAGLLKEAQLPVIENKVCNRYEFLNGRVQSTELCAGHLAGGTDSCQGDSGGPLVCFEKDKYILQGVTSWGLGCARPNKPGVYVRVSRFVTWIEGVMRNN
modifications: directly biotinylated in the assays of Examples 7-9; coupled to Sepharose in Example 1
notes: The same entry is used for unlabelled, biotinylated and Sepharose-coupled plasminogen; also called Plg; biotinylated plasminogen
B2: Plg-RKT carboxyl-terminal peptide CEQSKLFSDK (SEQ ID NO: 33) (peptide)
peptide: CEQSKLFSDK
modifications: also: coupled to bovine serum albumin (BSA), attachment site not given here
notes: also called C-terminal peptide of mouse Plg-RKT; Plg-RKT polypeptide

The target of experiment [1] is B1. As to the kind of experiment: ELISA, detection control: plasminogen bound to BSA-coupled peptide, isotype control instead of anti-plasminogen MAb. (In general: An ELISA detects its analyte on a solid surface through an enzyme-linked reagent.)
Experiment [2] has as its target B2. As to the kind of experiment: ELISA on BSA-coupled peptide, anti-plasminogen MAb detection. An excerpt: Our isolation method was consistent with exposure of the carboxyl-terminus of Plg-RKT (with its carboxyl-terminal lysine) on the cell surface and also with the ability of the carboxyl-terminal domain to bind to plasminogen. For verification, we tested whether a synthetic peptide, corresponding to the C-terminus of Plg-RKT could bind plasminogen. The peptide, […] (SEQ ID NO: 33) corresponding to the ten C-terminal amino acids of Plg-RKT with cysteine substituted for R₁₃₈) was coupled to bovine serum albumin (BSA) and then coated onto wells of microtiter plates at 10 μg/ml. The wells were blocked with 5% BSA. Plasminogen (0.2 μM) was incubated with the wells, followed by our anti-plasminogen MAb ³⁶ and detection with HRP-conjugated goat anti-mouse IgG (Biosource, Camarillo, Calif.). Plasminogen bound to the peptide in a concentration dependent manner with 50% maximal binding achieved at a plasminogen concentration of ˜10 nM. The binding was specific because it was blocked in the presence of epsilon-aminocaproic acid (EACA), consistent with the ability of EACA to inhibit plasminogen binding to differentiated Hoxa9-ER4 cells. […] In controls for the detection method, O.D.₄₉₀ values obtained using an isotype control antibody or in the absence of added plasminogen were <5% of the values for plasminogen binding to the BSA-coupled peptide detected with anti-plasminogen MAb.

Experiment [3] has as its target B1. As to the kind of experiment: competition ELISA, soluble peptide against biotinylated plasminogen on immobilized …-BSA.
Experiment [4] has as its target T1, plasminogen fragment K1-3 (UniProt P00747 99-357).
T1 construct: range 79-337 or 79-353; it may not count on the precursor entry
As to the kind of experiment: competition ELISA against biotinylated plasminogen on immobilized peptide. The method, then:
(§1) 9. Recognition of Plg-RKT by Plasminogen Fragments in Other Assays to Define the ligand recognition specificity of Plg-RKT for plasminogen. the Plg-RKT polypeptide, […] (SEQ ID NO: 33), was coupled to microtiter wells. Plasminogen was directly biotinylated and then incubated with the immobilized peptide and detected with streptavidin-HRP, as above. (Plasminogen bound to the peptide in a concentration-dependent manner. In controls for specificity, biotinylated-Plg binding was competed by unlabeled Plg and no biotinylated-Plg binding to the reverse peptide was detected.) Plasminogen domains containing disulfide bonded kringle (K) structures were obtained by elastase digestion as described ³⁹. (K1-3 is comprised of the plasminogen amino acid sequences, Tyr⁷⁹-Val³³⁷ or Tyr⁷⁹-Val³⁵³. K4 is contained within the plasminogen amino acid sequences, Val³⁵⁴-Ala⁴³⁹. K5-PD is contained within the plasminogen amino acid sequences, Val⁴⁴²-Asn⁷⁹⁰ and contains kringle 5 as well as the latent protease domain.)

For a further experiment, the target named is T2, plasminogen fragment K4 (UniProt P00747 374-459).
T2 construct: range 354-439
T2 sequence (looked up): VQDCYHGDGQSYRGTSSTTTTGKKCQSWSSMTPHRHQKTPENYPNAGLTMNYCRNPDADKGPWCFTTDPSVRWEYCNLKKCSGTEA
The description is as above. On the procedure: as §1

Ends that are not written are not given here. Bounds are passed on as bounds.

With isotype control antibody (Example 4), the O.D.490 as percent of the value with anti-plasminogen MAb in the experiment with Plasminogen [1] is below 5%.
The EC50 is the concentration that produces a half-maximal response. The molecule B1 came in with an EC50 in experiment [2] of around 10 nM.
What is called IC50 is the concentration that gives 50% inhibition. In the experiment with Plasminogen [3], CEQSRFFIDK (also called wild type peptide) [peptide CEQSRFFIDK (SEQ ID NO: 34), corresponding to the C terminus of human Plg-RKT] had an IC50 of 1000 nM.
Consider B2, for which the binding result (in experiment [4]; in the experiment with plasminogen fragment K4) was “binds” each time.
